Here are results for 19 sequences from the DeepSol protein solubility set.

A short description of this series: soluble on expression in E. coli; label from the status in PepcDB or PDB records.
On to “MGLISAAVGAVGGGLADQWLEVIEAGDMGEGIVLAKGVAVRTDKRNTNKKGSSDVVSNGSIIHVNQNQFMMLVDGGKIVDYTAEPGYFKVENSASPSLFGGQFGDALKETFSRFKFGGTTPMKQEVFYVNLQEIKGIKFGTPNPLQYFDNFYNAELFLRTFGNYSIKITDPIKFFKEACPRDAENVHIDEINEQYLSEFLEALQAAISQMSMEGERISFIPSKGTVLSKHMSEILDDSWKELRGMEVLSVGIASISYDDESKELINMRNKGAMLGDPGVREGYVQGSIARGMEAAGSNQAGAGMAFMGMGMGMNAAGGFMGQASQTNMQQMQMNQAAQRAAQGAGQQQGAGAKAAGEWFCTECGHKNTGKFCAECGTPKPQGLEHHHHHH”, for which the “soluble on expression in E. coli” value was “soluble”. Then “MKTPARRSKRVNQEESETNVTTRVVLRTRKTNCSKTRAARVRPDYPLTRTTSESEMKLMPPEFFQIDALDLAPRLLGKFMRRDNVVLRITEVEAYRPNDSACHGRFGVTPRTAPVFGPGGHAYVYLCYGLHMMLNIVADKEGVGAAVLIRSCSPVSGMETIQERRGLKTDKPVLLNGPGKVGQALGLSTEWSHHPLYSPGGLELLDGGEDVEKVMVGPRVGIDYALPEHVNALWRFAVADTPWISAPKNTLKPL”, with “soluble”; and “MGSDKIHHHHHHMRCFIGIDLGSTTTKAVVMDENLQILGRGITNSRSNYDTAAAVSKQEALIDTRLTLFRRALGGVPEVAGKVDDILSDLERNFRHVQFLEQLEDLQQTCIANIKGPRFAGREKTVIEALEGTFSRLRDSSAKQYAPGVKRKSDFFRDLAGAEFMSHGEAVCKEAGLGFDLILNVYDKSIIEVENRPPSGDMEGKFVRALEKGTMTGSSILAPVQSALAIPLEETYVVGTGYGRVRLPFPKEHIRSEILCHGLGAHMMYPETRTVLDIGGQDTKGIQVDPVGIVENFQMNDRCAAGCGRYLGYIADEMNMGLHELGPLAMKSNKQVRINSTCTVFAGAELRDRLALGEKREDILAGLHRAIILRAMSILSRAGGVKDQFTFTGGVAKNEAAVRELRKLIKENYGDVTINIDPDSIYTGALGGATFAVRAVVN”, with “not soluble”. The result for “GSCKLPVKKATVVYQGERVKIQEKFKNGMLHGDKVSFFCKNKEKKCSYTEDAQCIDGTIEVPKCFKEHSSLAFWKTDASDVKPCA” reads “soluble”; that for “MGSDKIHHHHHHMRAKAKLYPKEAARLIREKPGVREAVTGATLHFERNRLKAYAEVPIEAWRERAKAVKDHVLTHLDHYLELAERRLRENGVQVHWAETPEDAHRVLREVVARHGVKRAVKAKSMLTEELGVNPLLEALGVEVYETDLGEYLIQLLGEPPSHIVGPAIHLSLEEIQRLFHQRFGTPLDAPPEALAQVARRVLREAFLTAELGISGANFLVAETGTLALMENEGNIRLSTSLPRVHVAFVGIEKLLPRFADLALFLPLAARAATGQRLSTFVSLIQGPAREGEEGPLEVHVVLVDNGRTALLHDPEAWETLRCLRCGACLNACPVYRQTGGHPYGYVYSGPIGAVLDPGLLTLEEAYPLPYASTLCGACLEACPVKIPIPKLLLAWRHRAVEEGLTPSWEHGAMRAFRKVMESPALYRLFSKGLRGLPLPQDLLPLLKAWTEGRGPLKPSPKPFHELWKEVERGG”, “not soluble”; that for “MGSDKIHHHHHHMPFLEIRLTKESGRIYEEHSHPMLSIGVMLEGETQFFLQGEEFRLQTGMLAVIPPRMAHACNPLPSQTRSYFILHLSLDFCLEIQGRLFNEGGQNLLPLRAPRIFDPMMYQGLTSLIQSLLKGYDSLKGEAFWGWCERFFARYTLEVSSRGDALISEVAEYLEGDVEEASLAFLSKRFQINPYTLERRFKKAYGTTPKRYHTDARLHRLKKLLRQGIPLALCAQYGGFSDQSHFQRFFKRRVALTPREYQLNFVQ”, “not soluble”. Then “MGSDKIHHHHHHMLLHLSTWQEVEAYLQQSKGIIFPIGSTEQHGPTGLIGTDAICAEAIAAGVGDATGAIVGPTINVGMALHHTAFPGTISLRPSTLIQVVRDYVTCLAKAGFSKFYFINGHGGNIATLKAAFSETYAHLEDLQIANAQQVQCQVANWFMCGSVYKLAKELYGDQEGSHATPSEVALTQYVYPEAIKQAPLSPEVASGHRIYSAADFRVRYPDGRMGSNPGLATPEHGKQFYDLAVKELSNGYLEFVNAD”, with “not soluble”. Turning to “SKERRAPQPVVARCKLVLVGDVQCGKTAMLQVLAKDCYPETYVPTVFENYTACLETEEQRVELSLWDTSGSPYYDNVRPLCYSDSDAVLLCFDISRPETVDSALKKWRTEILDYCPSTRVLLIGCKTDLRTDLSTLMELSHQKQAPISYEQGCAIAKQLGAEIYLEGSAFTSEKSIHSIFRTASMLCLNKPSPLPQKSPVRSLSKRLLHLPSRSELISSTFKKEKAKSCSIM”, the “soluble on expression in E. coli” value is listed as “soluble”. The result for “MVISMSDLTFEDVKKEISALDKLSDLEAKKYADTGGYADVIARANNLKTTQLRKFFSAIRSMEKKADSWKSIEADFYLLKPQLANARGRDLIPEGFYEVMKKMMDKVDRGDDDEKIENFRVFVRFLESIVAYHKFYNPRS” reads “not soluble”; that for “MSLKLVRKFARDIEVDELAICIPLEYKSACLIYELSRYTNVYAAKLDDFSTKPEVVSWLKEKGVEVKMKRDVVNAEYFLDCAAVLSRVAVKSGKERLKVVELTKTGEEYLRKMDVRMKAISLDSSTLKGTGENTHGTAFGLLDALLRLNVFLPGKKALILGFGRVGRGCARLLKSVGCDVAVWDNDETRQIEALYEGFRVEKDFTAEVVVTCTGVKGVLGKEELEEISDGSIILNMGAEMEIEPAGELIKDYGLVKEYEIAGKRYFLVADGYAANLALGSGTPIEVMDRTFSAAILALNHLSRSDFDGIIPLPHHIESTILEAIMMYEGHHHHHH”, “not soluble”; that for “NTLTSQIEQLQSLAHELLYLGVDGAPIYTDHFRQLNKEVLEQSDALYPQRGATPEEEANICLALLMGYNATIYNQGDKEEKKQVVLNRCWDVLDQLPATLLKCQLLTYCYGEVFE”, “not soluble”. With “MGSDKIHHHHHHMRVLGLILAGGKSDRLWPLTKVRASAAVPVFGKYRAIDFTLSNMVNSGIRKVGILTQYNPRSLMDHLGSGKEWDLDRKSGGLFILQPYVGPNREVWYRGTADAIFQNMTILRRGEEDHVLIGSGDHIYKMIYRDLFNYHLKKGADITLVVKELDETYNLSEYGIVQLDDDMRVVEIEEKPAHPKGNIAFLGVYFMNKELLKELLYATVPQGKYDLLLDIVIPNLDRLKVYAYRFDGYWRNVKKGIKEYYRINMDILKKEVRDELFYRNGKVYTKLKDLPPPKFTTTAVVENSLIADGSIVSGTVRNSVIFRNVRIKVGAVVENSIIMENTVVEEGAVLRNVILDKNCIVREGRVIEGDTELPVFEKRAVL”, the “soluble on expression in E. coli” value is “not soluble”. Then “MGSDKIHHHHHHMSLPYKRWHYFNLIKNSLQKGCLKQQQTLTATTLKRNTIMTVIKQEDFIQSICDAFQFISYYHPKDYIDALYKAWQKEENPAAKDAMTQILVNSRMCAENNRPICQDTGIATVFLKVGMDVQWDADMSVEEMVNEGVRRAYTWEGNTLRASVLADPAGKRQNTKDNTPAVIHMSIVPGDKVEVTCAAKGGGSENKSKLAMLNPSDNIVDWVLKTIPTMGAGWCPPGILGIGIGGTPEKAVLMAKESLMSHIDIQELQEKAASGAELSTTEALRLELFEKVNALGIGAQGLGGLTTVLDVKILDYPTHAASKPIAMIPNCAATRHVEFELDGSGPVELTPPRVEDWPDLTYSPDNGKRVDVDKLTKEEVASWKTGDVLLLNGKILTGRDAAHKRLVDMLDKGEELPVDFTNRLIYYVGPVDPVGDEIVGPAGPTTATRMDKFTRQMLEQTDLLGMIGKSERGAATCEAIADNKAVYLMAVGGAAYLVAKAIKSSKVLAFPELGMEAIYEFEVKDMPVTVAVDSKGESIHATAPPQWQAKIGIIPVKS”, with “not soluble”; and “MSIPFTRWPEEFARRYREKGYWQDLPLTDILTRHAASDSIAVIDGERQLSYRELNQAADNLACSLRRQGIKPGETALVQLGNVAELYITFFALLKLGVAPVLALFSHQRSELNAYASQIEPALLIADRQHALFSGDDFLNTFVTEHSSIRVVQLLNDSGEHNLQDAINHPAEDFTATPSPADEVAYFQLSGGTTGTPKLIPRTHNDYYYSVRRSVEICQFTQQTRYLCAIPAAHNYAMSSPGSLGVFLAGGTVVLAADPSATLCFPLIEKHQVNVTALVPPAVSLWLQALIEGESRAQLASLKLLQVGGARLSATLAARIPAEIGCQLQQVFGMAEGLVNYTRLDDSAEKIIHTQGYPMCPDDEVWVADAEGNPLPQGEVGRLMTRGPYTFRGYYKSPQHNASAFDANGFYCSGDLISIDPEGYITVQGREKDQINRGGEKIAAEEIENLLLRHPAVIYAALVSMEDELMGEKSCAYLVVKEPLRAVQVRRFLREQGIAEFKLPDRVECVDSLPLTAVGKVDKKQLRQWLASRASA”, with “soluble”; and “MSLSYSNILVAVAVTPESQQLLAKAVSIARPVKGHISLITLASDPEMYNQLAAPMLEDLRNVMQEETQSFLDKLIQDAGYPVDKTFIAYGELSEHILEVCRKHHFDLVICGNHNHSFFSRASCSAKRVITSSEVDVLLVPLTGDEGHHHHHH”, with “soluble”. Then “MGSDKIHHHHHHKDEDPVLPLEGAKLSVAVKASGTATKAYNPNDVNELEGEAYINNLAVVVFNETGTELLGYKWEALSGAEHSAIIADVPTTKAVRARIIVLANVPRDLLSTVSTYDEFQTRLVDLSSQSQTNLTMSSQVIVTKSALSEEDNYLGYTDLGDQNVDGISDPILLTRVAARIDLVNISTRFAGTPFAGREVRIDAVGIYNMKTKSYYFSEADWGETEAPDAVRNSEDTSFEDLLVNDGTSISNTPFVHYVMENMKSDDHTMIAVKATLRGNSSYQDHTKIFTAVINAGGLQNGYDHNFIRRNYVYRLRIYFDGESFDNIPVTPDPGPGPDPEPEVDTNLNIAVQVVGWGPVMQHPVID”, with “not soluble”; and “MSLSGKLTYKELIIEVLKQTKKPLNVSEIWQKALEKGLDKKLSSIGQTPTQTIWNRLLTDKINFLKTSIKPTTFWLKERENELLKLDNKNEITNEKQEKNKFHERDLHPLLVKFLYENLDFNLNCKTIYHEQSKKGKGGEDKWNYPDIVGVYFPYDDYEKETITLLENIKQNSYKLFSFELKIALNFSNLKECYFQAVSNSSWANEGYLVVLQEIDSEVLSELRRLNQSFGIGVIKLEKDISNSQILISAKEKELDIQTLNMLINKNPNFKEFIDDINKQIKVGKEAKIQANFDEIKSDEEMEKYLKEKCILEKEGHHHHHH”, with “soluble”; and “MKILVTSGGTSEAIDSVRSITNHSTGHLGKIITETLLSAGYEVCLITTKRALKPEPHPNLSIREITNTKDLLIEMQERVQDYQVLIHSMAVSDYTPVYMTGLEEVQASSNLKEFLSKQNHQAKISSTDEVQVLFLKKTPKIISLVKEWNPTIHLIGFKLLVDVTEDHLVDIARKSLIKNQADLIIANDLTQISADQHRAIFVEKNQLQTVQTKEEIAELLLEKIQAYHSLEHHHHHH”, with “soluble”. “MSLAESRLTKLGQELAADKEFSSLERFADLVEKLQASLEIDATTLAAILLKRQQGKRPLFYVGADPMIEAMEREKSRRRERRDDRRDGDRPARREFGGRDQENHDWDTYQLQVGRDQGVQVKDIVGALANELGLTKGSIGAIKLAQGHTFVQLPKAMSNDVSSKLRKLRIRQKEVGAVVCDFDDFRESRGGARREGGPRREGGRRPEGNREGGFRGGREGGREGGRGRGGEGRPFREGERRFERNRSGESSGSYRGERGHSRRREEAEGHHHHHH”: the “soluble on expression in E. coli” value was “not soluble”.
